Reference: article PMC4166567

How the values were obtained:
[1] = target: adenylyl cyclase 5/6 (AC5/6), endogenous in HEK-293 cells (human (endogenous in HEK-293)) (UniProt O95622); assay: co-IP
[2] = target: caveolin-1 (Cav-1), endogenous in human renal proximal tubule (hRPT) cells (human (endogenous in hRPT cells)) (UniProt Q03135); assay: co-IP
Sequence of UniProt Q03135 (Q03135 whole entry): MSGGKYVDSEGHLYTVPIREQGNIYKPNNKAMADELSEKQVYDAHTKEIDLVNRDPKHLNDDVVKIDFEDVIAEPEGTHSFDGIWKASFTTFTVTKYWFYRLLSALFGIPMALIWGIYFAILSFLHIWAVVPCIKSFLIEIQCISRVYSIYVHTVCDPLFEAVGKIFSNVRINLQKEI

Row | density of the co-immunoprecipitated band (DU), cells with fenoldopam [1] | density of the co-immunoprecipitated band (DU), cells with fenoldopam [2] | density of the co-immunoprecipitated band (DU), control cells [2] | Substance
1 | 41.9 DU | – | – | human dopamine D1 receptor, Myc-tagged, heterologously expressed in HEK-293 cells (HEK-hD1R) (from UniProt P21728 1-446)
2 | – | 148 DU | 70.3 DU | adenylyl cyclase 5/6 (AC5/6), endogenous in human renal proximal tubule (hRPT) cells (from UniProt O95622 1-1261) (enzyme)
3 | 76.2 DU | – | – | human dopamine D5 receptor, V5-tagged, heterologously expressed in HEK-293 cells (HEK-hD5R) (from UniProt P21918 1-477)
